Changes are numbered by the printed parent chain.

Data on one molecule can be found in US20090118184A1 (UNIVERSITY OF ROCHESTER, published 2009).

Test in all cases: cell-based or functional assay
In test [1] the target is T1, factor VIIIa A1/A3C1C2 dimer, Glu272Ala (human, UniProt P00451 20-391; P00451 1709-2351).
T1 chain 1: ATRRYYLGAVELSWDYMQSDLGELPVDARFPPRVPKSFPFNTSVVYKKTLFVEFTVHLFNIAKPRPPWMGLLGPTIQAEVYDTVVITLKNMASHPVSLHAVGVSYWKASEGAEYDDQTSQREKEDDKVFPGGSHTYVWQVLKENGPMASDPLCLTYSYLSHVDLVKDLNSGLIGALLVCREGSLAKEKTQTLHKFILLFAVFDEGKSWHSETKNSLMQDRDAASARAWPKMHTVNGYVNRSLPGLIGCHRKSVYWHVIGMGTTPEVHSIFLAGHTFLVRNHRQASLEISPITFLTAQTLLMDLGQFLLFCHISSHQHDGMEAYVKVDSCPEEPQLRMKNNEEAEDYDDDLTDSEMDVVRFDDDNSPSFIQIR
T1 chain 2: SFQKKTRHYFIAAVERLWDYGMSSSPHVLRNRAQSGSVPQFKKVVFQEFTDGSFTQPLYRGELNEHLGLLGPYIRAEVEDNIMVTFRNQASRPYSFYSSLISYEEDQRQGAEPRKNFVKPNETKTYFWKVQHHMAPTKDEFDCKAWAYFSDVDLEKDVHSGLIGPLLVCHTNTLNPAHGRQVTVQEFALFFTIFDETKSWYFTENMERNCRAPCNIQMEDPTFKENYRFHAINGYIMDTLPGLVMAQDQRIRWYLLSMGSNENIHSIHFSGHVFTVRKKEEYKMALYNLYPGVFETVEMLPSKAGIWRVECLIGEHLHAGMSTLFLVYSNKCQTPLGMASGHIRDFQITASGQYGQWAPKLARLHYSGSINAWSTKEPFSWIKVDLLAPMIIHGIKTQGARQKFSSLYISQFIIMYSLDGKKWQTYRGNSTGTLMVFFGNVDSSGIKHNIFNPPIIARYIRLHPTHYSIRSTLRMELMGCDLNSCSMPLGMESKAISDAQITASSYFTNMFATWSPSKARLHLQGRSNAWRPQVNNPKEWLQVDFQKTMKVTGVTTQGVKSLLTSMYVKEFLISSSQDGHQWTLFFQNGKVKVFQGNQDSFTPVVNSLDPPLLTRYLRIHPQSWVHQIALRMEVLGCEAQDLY

For test [2], the target named is T2, factor VIIIa A1/A3C1C2 dimer, Glu272Val (human, UniProt P00451 20-391; P00451 1709-2351).
T2 chain 1: T1 chain 1 with A272V
T2 chain 2: T1 chain 2

Test [3] deals with T3, factor VIIIa A1/A3C1C2 dimer, wild type (human, UniProt P00451 20-391; P00451 1709-2351).
T3 sequence 1: T1 chain 1 with A272E
T3 sequence 2: T1 chain 2

Test [4] addresses T4, factor VIIIa A1/A3C1C2 dimer, Glu1984Val (human, UniProt P00451 20-391; P00451 1709-2351).
T4 sequence 1: T1 chain 1 with A272E
T4 sequence 2: T1 chain 2 with E295V

B1: factor VIIIa A2 subunit, wild type (other)
chain: SVAKKHPKTWVHYIAAEEEDWDYAPLVLAPDDRSYKSQYLNNGPQRIGRKYKKVRFMAYTDETFKTREAIQHESGILGPLLYGEVGDTLLIIFKNQASRPYNIYPHGITDVRPLYSRRLPKGVKHLKDFPILPGEIFKYKWTVTVEDGPTKSDPRCLTRYYSSFVNMERDLASGLIGPLLICYKESVDQRGNQIMSDKRNVILFSVFDENRSWYLTENIQRFLPNPAGVQLEDPEFQASNIMHSINGYVFDSLQLSVCLHEVAYWYILSIGAQTDFLSVFFSGYTFKHKMVYEDTLTLFPFSGETVFMSMENPGLWILGCHNSDFRNRGMTALLKVSSCDKNTGDYYEDSYEDISAYLLSKNNAIEPR
Regarding B1, in test [1], the “Factor VIIIa Decay relative to the WT value, Factor IXa absent” value is 1.95 relative to WT; the “Factor VIIIa Decay relative to the WT value, Factor IXa present” value is 1.06 relative to WT; the “Factor VIIIa Decay, Factor IXa absent” value worked out at 0.164 min⁻¹; the “Factor VIIIa Decay, Factor IXa present” value was 0.0163 min⁻¹. Moreover, in test [2], the “Factor VIIIa Decay relative to the WT value, Factor IXa absent” value is 2.72 relative to WT; the “Factor VIIIa Decay relative to the WT value, Factor IXa present” value was 1.03 relative to WT; the “Factor VIIIa Decay, Factor IXa absent” value was 0.227 min⁻¹; the “Factor VIIIa Decay, Factor IXa present” value was determined as 0.0159 min⁻¹. Besides, in test [3], the “Decay rate relative to wild type, Factor VIIIa (1.5 nM, factor IXa absent)” value is 1 relative to wild type and the “Decay rate, Factor VIIIa (1.5 nM factor VIIIa, factor IXa absent)” value came out at 0.14 min⁻¹. In test [4], the “Decay rate relative to wild type, Factor VIIIa (1.5 nM, factor IXa absent)” value was 0.34 relative to wild type and the “Decay rate, Factor VIIIa (1.5 nM factor VIIIa, factor IXa absent)” value came to 0.0471 min⁻¹.
